Assay results taken from the nanobody polyreactivity screen of Harvey et al. (2022).

Assay: yeast display, Sf9 membrane polyspecificity reagent, FACS + sequencing; frameworks hold sequencing errors
Procedure, shortened: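 Using colony PCR, genes from sorted yeast display clones were amplified, then sequenced on MiSeq at 2 × 250 and filtered by CDR length. The clones had been stained with 10% biotinylated, detergent-solubilized Sf9 membrane reagent for 1 hour at 4 °C and sorted by FACS into low and high (top ~1%) gates on anti-HA and streptavidin fluorescence. Polyreactivity labels come from the gate of origin.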

Sequence | polyreactivity (PSR sort gate)
QVQLVESVGGLVQAGGSLRLSCAASGRTFRWNAMGWYRQAPGKERELVAAISYSGGSTYYADSVKGRFTISRDNAKNTVYLQMNSLKPEDTAVYYCAKAYSWYPIFRGLDSWGQGTQVTVSS | high polyreactivity
QVQLVESVGGLVQAGGSLRLSCAASGRTFRYNAMGWYRQAPGKERELVASITSGGSTNYADSVKGRFTISRDNAKNTVYLQMNSLKPEDTAVYYCAAEAYFWQYERDYWGQGTQVTLSS | low polyreactivity
QVQLVESVGGLVQAGGSLRLSCAASGRTFSTKAMGWYRQAPGKERELVAVIPSSGVRTYYADSVKGRFTISRDNAKNTVYLQKNSLKPEDTAVYYCAKPYGYRLDYWGQGTQVTVSS | high polyreactivity
QVQLVESVGGLVQAGGSLRLSCAASGRTFWWNAMGWYRQAPGKEREFVAAIRSTGGRTYYADSVKGRFTISRDNAKNTVYLQMNSLKPEDTAVYYCAAYTLDPYGFLYEYWGQGTQVTVSS | high polyreactivity
QVQLVESVGGLVQAGGSLRLSCAASGRTIHFNTMGWYRQAPGKERELVAAIRWGGNTYYADSVKGRFTISRDNAKNTVYLQMNSLKPEDTAVYYCAADRWYYFLMYYWGQGTQVTVSS | low polyreactivity
QVQLVESVGGLVQAGGSLRLSCAASGRTLPWYAMGWYRQAPGKERELVAVIRWIGGRTYYADSVKGRFTISRDNAKNTVYLQMNSLKPEDTAVYYCAARPHYYYGWYYYWGQGTQVTVSS | high polyreactivity
QVQLVESVGGLVQAGGSLRLSCAASGSIFKSYAMGWYRQAPGKERELVAAITYRGGSTYYADSVKGRFTISRDNAKNTVYLQMNSLKPEDTAVYYCAKDQHRYYQVWGDYWGQGTQVTVSS | high polyreactivity
QVQLVESVGGLVQAGGSLRLSCAASGSIFRNYAMGWYRQAPGKERELVAAITYRGGTTYYADSVKGRFTISRDNAKNTVYLQMNSLKPEDTAVYYCNTASVSRLYGEYDYWGQGTQVTVSS | high polyreactivity
QVQLVESVGGLVQAGGSLRLSCAASGSIFSYYAMGWYRQAPGKERELVAAITSSGDSTYYADSVKGRFTISRDNAKNTVYLQINSLKPEDTAVYYCAAGILDLKLYFSSYDYWGQGTQVTVSS | low polyreactivity
QVQLVESVGGLVQAGGSLRLSCAASGSIFVPYAMGWYRQAPGKEREFVAAIYSGGGNTYYADSVKGRFTISRDNAKNTVYLQMNSLIPEDTAVYYCAAAYFYSSWSRYDYWGQGTQVTVSS | high polyreactivity
QVQLVESVGGLVQAGGSLRLSCAASGSILRRYAMGWYRRAPWKERELVAAIDGGGGTTYYADSVKGRFTISRDYAKKTVYLQMNSLKPEDNAVYYCAADASWELIAWAHYDYWGQGTQVSVSS | low polyreactivity
QVQLVESVGGLVQAGGSLRLSCAASGSIRYYAMGWYRQAPGKERELVAAISSRGTNTYYADSVKGRFTISRDNAKNTVYLQMNSLKPEDTAVYYCNAVVGLGYNYWGQGTQVTVSS | high polyreactivity
QVQLVESVGGLVQAGGSLRLSCAASGSTCQRYAIGWYRQAPGKERELVAAISDGGSTNYADSVKGRFTISRDNAKNTVYLQMNSLKPEDTAVSYCAAKYLSRYDYWGQGTQVTVSS | low polyreactivity
QVQLVESVGGLVQAGGSLRLSCAASGSTFDDNAMGWYRQAPGKERELVASITYRGGSTYYADSVKGRFTISRDNAKNTVYLQMNSLKPEDTAVYYCAKGHYFKYDYWGQGTQVTVSS | low polyreactivity
QVQLVESVGGLVQAGGSLRLSCAASGSTFGHYAMGWYRQAPGKERELVSAISTSGGRTYYADSVKGRFTISRDNAKNTVYLQMNSLKPEDTAVYYCATRRYGVDKFDYWGQGTQVTVSS | high polyreactivity
QVQLVESVGGLVQAGGSLRLSCAASGSTFLVYAMGWYRQAPGKERELVAAITQIDGSTYYADSVKGRFTISRDNAKNTVYLQMNSLKPEDTAVYYCAARYFWTYEYDYWGQGTQVTVSS | low polyreactivity
QVQLVESVGGLVQAGGSLRLSCAASGSTFVDYAMGWYRQAPGKERELVAAINSDGGGTYYADSVKGRFTISRDNAKNTVYLQMNSLKPEDTAVYYCNVEYVDYYAQRYGYDYWGQGTQVTLSS | low polyreactivity
QVQLVESVGGLVQAGGSLRLSCAASGSTFWTNAMGLYRQAPGKERELVATISKTTGRTYYADSVKGRFTISRDNAKNTVYLQMNSLKPEDTAVYYCAAEPYSWDTWVDYDYWGQGTQVTVSS | low polyreactivity
QVQLVESVGGLVQAGGSLRLSCAASGSTFYENTMGWYRQAPGKERELVAAISRSGVSTYYADSVKGRFTISRDNAKNTVYLQMNSLKPQDTAVYYCAAIVYRRYDYWGQGTQVTVSS | high polyreactivity
QVQLVESVGGLVQAGGSLRLSCAASGSTFYTYDMGWYRQAPGKERELVAAISRRDGITYYADSVKGRFTISRDNAKNTVYLQMNILKPEYTAVYYCAAEDAYLYYDFDYWGQGTQVTVSS | low polyreactivity
QVQLVESVGGLVQAGGSLRLSCAASGSTISLYKGWYRQAPGNETELVAAITYSGGRTYYADSVKGRFTISRDNAKNTVYLQMNSLKPEDTAVYYCATVFNDLTVYEYWSRFDYWGQGTQVTVSS | low polyreactivity
QVQLVESVGGLVQAGGSLRLSCAASGTIFGWYAMGWYRQAPGKEREMVATIDASGRSTFYADTVKGRFTISRDNAKNTVYLQMNSLKPEDTAVYYFNSRYPRQYWGGYDYWGQGTQVTVSS | low polyreactivity

Sequence | polyreactivity (PSR sort gate)
QVQLVESVGGLVQAGGSLRLSCAASGYIFATNAMGWYRQAPGKERELVAAITRSGGRTYYADSVKGRFTISRDNAKNTVYLQMNSLKPEDTAVYYCAAARPTNIYYYWGQGTQVTVSS | high polyreactivity
QVQLVESVGGLVQAGGSLRLSCAAYGRIFAWYAMGWYIQAPGKERELVAVITSSDGSTHYADSVKGRFTISRDNAKNTVYLQMNSLKPEDTAVYYCNADSQRPRRSSTYWGQGTQVTVSS | low polyreactivity
QVQLVESVGGLVQAGGSLRLSCASSGSTFTYYAKVWYRQAPGKERELVAAISCTGTSTYYADSVKGRFTISRDNAKNTVYFQMNSLKPEDTAVYYSASTYRGYSGYKRRDYWGQGTQVTVSS | high polyreactivity
QVQLVESVGGLVQAGGSLRLSLAASGFTFWYYAMGWYRQAPGKERELVAVINTSGGSTYADSVKGRFTISRDNAKNTVYLQMNSLKPEDTAVYYCAAEGISTYPYDYCGQGTQVTVSS | low polyreactivity
QVQLVESVGGLVQAGGSLRLSSAASGIIFRRYPMVWYREPPGKDRELVAAISSGGRTYYADSGKGRFTISRDNAKNSVYLHMNSLKQEDTAVYYCAARWWYKNKYWGQGTQVTVSS | high polyreactivity
QVQLVESVGGLVQAGGSLRLSSAASGYTSNIYAMGWYRQAPGTERELVASIRGRSGSTYYADSVKGRFTISRDNAKNSVYLQMNSLKPEDTAVYYCAGSRPWDFYRFGFDYWGQGTQVTVSS | high polyreactivity
QVQLVESVGGLVQAGGSLSISCAASGRIFPRNAMGWYRPAPGKERELVAAISSGGGGTYYADSVKGRFTISRDNAKNTVYLQMNSQKPEDTAVYYCAAYVVRWWCDGDYWGQGTQVTVSS | high polyreactivity
QVQLVESVGGLVQAGGSLSLRCAASGLISRRNAMGWYRQAPGKERELVAAISTGSSTNYADSVKGRFTISRDNAKNTVYLQMNSLKTEDTAFYYCATDYLAGAPCEGHVEREYDYWGQGTQVTVSS | low polyreactivity
QVQLVESVGGLVQAGGTLRLSCAASGRIFCIYAMGWYRPAPGKVRSLVATITGSGGSTYYADSVKGRFTISRDNAKNTVYLQLHSLKPEDTAVYYCAARYPVSGGYDYWGQGNQVTVSS | low polyreactivity
QVQLVESVGGLVQAVGSLRLSCAASGFTFSDYAMGWYRHAPGKERELVAAISTRCSSTYYADSVKGRFTISRDIAKNNVYLQMNSLKPEDTAVYYCNAVGSYSGYYYWGQGTQVTVSS | high polyreactivity
QVQLVESVGGLVQVGGSLRLSCAASGSILTDYGMGWYRQAPGKERELVAAITGSGGSTYYADSVKGRFTISRDNAKNTVYLQMNSLKPEDTAVYYCAKRHVGSRYLFDYWGQGTQVTVSS | low polyreactivity
QVQLVESVRGLVQAGGSLRLSCAASGRIIYLNGMGSYRQAPGKERELVAAISSSDDSTYYAVSVKGRFTISRDNATNTVYLQLNSLKPEDTAVYYCAAGYHQVQNYGDAYYWSELYSWGQGTQVTVSS | low polyreactivity
QVQLVESVVGLVQAGGSLPISCAASGSTFSANDMVWYSQPHGTERELVAAIDTGGTTYYADSVKGRFTISRDNAKNTVYLQMNSLKPEYTAVYYCNATIWYRDYGYWVQGTQVTVSS | low polyreactivity
QVQLVESVVGLVQAGGSLRLSCAASGRIFAYYAMGWYRQAPGKERELVAAISSSGGGTYYADSVKGRFTISRDNAKNTVYLQMNSLKPEDTAVYYCAKRVRRKYSVSHPYDYWGQGTQVTVSS | high polyreactivity
QVQLVESVVGLVQAGVSLRLSCSASGFIFGRYAMGWYRQAPGKERELVADISWNGGSTYYADSVKGRFTISRDNAKNTVYLQMNSLKPEDTAVYYCAADYYWASFKYPYLRPYDYWGLGTQVTVSS | high polyreactivity
QVQLVESVVGLVQARGTLRLSGATTGNTFYKNTMRWYRQPHGKERELVAAISQRGTRTYYADSVQGRFTISRDYAKNTVYLQMNSLKPEDTAVYYCPTVMSQVGFDYWGQGTQVTVSS | high polyreactivity
QVQLVESWGALVQAGGSLRLSCAPSGSSKLMLWEGIDRRLGNKGSWLPLIVLVVLRNYADSVKGRFTISRDNAKNTLYLQMNSLKPDDTAVYYCAATPIGSGGWGDYWGQGTQVTLSS | low polyreactivity
QVQLVESWGGIVQAGGILRLSFAAYGRIFASNAMGWYRKAPGKERELVAGISRNGGSTFYEDSVKGRYTISRDTAKNTVYLQMISLKPDDTAVYYCARYYTHSGGYRDRIYYYWGQGTQVTVSS | low polyreactivity
QVQLVESWGGLVQAGGSLRISCAASGRTFPDYAMGWYRQAPGKERELVAAISSGGGTYYADSVKGRFTISRDNAKNTVFLQMNSLKPEDTAVYYCAATGVPGWVGFDYCGQGTQVTVSS | low polyreactivity
QVQLVESWGGLVQAGGSLRLICAASGSTFRDYFLGWYRRAPGKERELVATISGSGGSTYYADSVKGRFTISRDNAKNTVYLQMNSLKPEDTAFYYCAAVSVSSWYDYWGQGTQVTVSS | low polyreactivity
QVQLVESWGGLVQAGGSLRLRFAASVRTFVSNAMGWYRQAPGKERELVARITGSGGNTYYADSVKGRFTISRDNEKNTVYLQMNSLKPEDTAVYYCNSDVFRKFGSPSGYKSHRYDYWGQGTQVTVSS | low polyreactivity
